Earlier results on one substance are cited in PMC8773166.

The series addresses calmodulin (UniProt P0DP23).

As usually defined, the Kd is the free concentration of one partner at which half of the binding sites on the other are occupied at equilibrium, for simple one-to-one binding. As for “NCX1 XIP peptide XIP (from UniProt P32418)”, the Kd is 200 nM.
